# Experimental data as given in US20080220004A1 (published 2008).
# B1: mini-VEGF trap (other)
# chain: SDTGRPFVEMYSEIPEIIHMTEGRELVIPCRVTSPNITVTLKKFPLDTLIPDGKRIIWDSRKGFIISNATYKEIGLLTCEATVNGHLYKTNYLTHRQTNTIIDVVLSPSHGIELSVGEKLVLNCTARTELNVGIDFNWEYPSSKHQHKKLVNRDLKTQSGSEMKKFLSTLTIDGVTRSDQGLYTCAASSGLMTKKNSTFVRVHEKDKTHTCPPC
# notes: also called truncated VEGF trap protein
# How the values were obtained:
# [1] = target: chimeric receptor Flt(1-7)-EpoR on Baf/3 cells (human) (UniProt P17948); test: cell-based or functional assay
# [2] = target: human VEGF165 (human, UniProt P15692-4 27-191); test: ELISA of rabbit ocular tissue and plasma samples on human VEGF165-coated plates (pharmacokinetic detection)
# Sequence of human VEGF165 (P15692 other isoform, or with tags, fused parts or gaps): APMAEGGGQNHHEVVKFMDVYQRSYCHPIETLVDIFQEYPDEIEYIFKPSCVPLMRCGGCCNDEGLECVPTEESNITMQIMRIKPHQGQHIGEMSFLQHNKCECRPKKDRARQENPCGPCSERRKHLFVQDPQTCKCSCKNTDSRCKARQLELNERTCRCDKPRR
# Procedure: Ocular and systemic levels of two VEGF inhibitors were determined after a single intravitreal administration to male Pigmented New Zealand Cross Bred rabbits. At various time points following the injection, the rabbits were sacrificed and vitreous, retina, and choroid tissues were collected, as well as blood samples for plasma and serum.
# Sample Processing. Generally, vitreal samples were thawed at room temperature and transferred to individual 5 mL polypropylene tubes. An equivalent weight per volume of RIPA buffer (20 MM Tris HCl, pH 7.5, 5 mM benzamidine, 150 mM sodium chloride, 50 mM sodium fluoride, 1 mM sodium orthovanadate, and 1 mM EDTA) was added to each sample, and homogenized (Cyclone I.Q. Microprocessor, Sentry) for 2, 45 second cycles at 5,500 rpm. The samples were then incubated for 20 minutes on ice and then centrifuged for 30 minute at 5,500 rpm at 4° C. The supernatant was removed and stored at −80° C. for analysis. Retinal and choroid samples were similarly processed the samples were homogenized for 30-60 seconds at the highest speed setting (Ultra Tunax T8 Homogenizer with S8N-5G Disposing Element, IKA Laboratoies). The samples were transferred to individual 1.5 mL eppendorf tubes and incubated for 20 minutes on ice. They were then centrifuged for 30 minutes at 5,500 rpm, 4° C. […]
# Sequence of chimeric receptor Flt(1-7)-EpoR on Baf/3 cells (human) (P17948 other isoform, or with tags, fused parts or gaps mutant limits assumed): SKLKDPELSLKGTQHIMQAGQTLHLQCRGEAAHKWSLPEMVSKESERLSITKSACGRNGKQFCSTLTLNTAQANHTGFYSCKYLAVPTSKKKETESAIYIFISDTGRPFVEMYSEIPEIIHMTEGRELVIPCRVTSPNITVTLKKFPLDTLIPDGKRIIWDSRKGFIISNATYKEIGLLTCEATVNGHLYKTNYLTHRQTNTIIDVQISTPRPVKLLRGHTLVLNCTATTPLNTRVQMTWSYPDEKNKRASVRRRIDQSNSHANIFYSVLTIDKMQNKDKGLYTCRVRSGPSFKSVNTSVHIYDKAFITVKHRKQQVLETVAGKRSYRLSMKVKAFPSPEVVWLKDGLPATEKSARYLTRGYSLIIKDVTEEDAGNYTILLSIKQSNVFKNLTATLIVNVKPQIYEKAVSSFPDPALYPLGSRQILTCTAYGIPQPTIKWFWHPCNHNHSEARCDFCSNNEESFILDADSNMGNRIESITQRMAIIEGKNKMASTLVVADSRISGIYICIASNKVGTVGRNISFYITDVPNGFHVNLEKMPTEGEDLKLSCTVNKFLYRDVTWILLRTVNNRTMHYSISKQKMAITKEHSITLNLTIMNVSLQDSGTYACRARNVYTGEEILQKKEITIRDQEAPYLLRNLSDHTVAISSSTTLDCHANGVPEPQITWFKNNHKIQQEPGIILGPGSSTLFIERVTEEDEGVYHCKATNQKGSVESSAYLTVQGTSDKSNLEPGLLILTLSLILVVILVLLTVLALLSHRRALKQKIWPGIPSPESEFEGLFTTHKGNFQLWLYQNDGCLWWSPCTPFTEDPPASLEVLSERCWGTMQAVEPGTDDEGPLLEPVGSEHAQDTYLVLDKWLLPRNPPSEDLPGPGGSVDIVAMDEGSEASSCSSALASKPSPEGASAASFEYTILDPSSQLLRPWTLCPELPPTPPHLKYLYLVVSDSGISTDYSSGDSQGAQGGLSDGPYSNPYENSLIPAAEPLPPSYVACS
Molecule,"proliferation of Baf/Flt(1-7)-EpoR cells (WST-8 bioreduction), EC50 [1] [nM]",binding result [2]
VEGF 121 (R&D Biosystems) (from UniProt P15692 27-147) (ligand),0.018,–
B1,–,binds
